From patent US20240124586A1 (WUXI BIOLOGICS IRELAND, published 2024) come the findings set out here.

The target in test [1] is cynomolgus CTLA-4 protein (cynomolgus, UniProt G7PL88 36-161, Probably biotinylated for streptavidin-PE detection, as described for the human CTLA-4 reagent in paragraph 775; the letters cannot carry this.). The test can be described thus: FACS competition: blocks cynomolgus CTLA-4 protein binding to human CD80 engineered cells. The method, then: Competitive FACS was used to test whether the antibodies could block human or cynomolgus CTLA-4 binding to hCD80 on cell surface. […] Then the mixtures of antibody and CTLA-4 were added to the cells and incubated for 1 hour at 4° C. The cells were washed two times with 200 μl FACS washing buffer (DPBS containing 1% BSA). Streptavidin PE (BD Pharmingen-554061) 1 to 600 diluted in FACS buffer was added to the cells and incubated at 4° C. for 1 hour. Additional washing steps were performed two times with 200 μL FACS washing buffer followed by centrifugation at 1500 rpm for 4 minutes at 4° C. Finally, the cells were resuspended in 100 μL FACS washing buffer and fluorescence values were measured by flow cytometry and analyzed by FlowJo.
Sequence of cynomolgus CTLA-4 protein (G7PL88 entry or part of it limits assumed): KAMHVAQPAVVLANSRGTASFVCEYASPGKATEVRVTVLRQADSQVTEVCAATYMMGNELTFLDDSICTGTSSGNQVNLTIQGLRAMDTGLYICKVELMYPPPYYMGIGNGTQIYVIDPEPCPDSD

The target of test [2] is T1, human CD19 on CD19+ B cell lines (Ramos, Raji) (human, UniProt P15391 20-556).
T1 construct: whole, on cells; also called CD19+ Ramos cells; CD19+ Raji cells
T1 sequence (looked up): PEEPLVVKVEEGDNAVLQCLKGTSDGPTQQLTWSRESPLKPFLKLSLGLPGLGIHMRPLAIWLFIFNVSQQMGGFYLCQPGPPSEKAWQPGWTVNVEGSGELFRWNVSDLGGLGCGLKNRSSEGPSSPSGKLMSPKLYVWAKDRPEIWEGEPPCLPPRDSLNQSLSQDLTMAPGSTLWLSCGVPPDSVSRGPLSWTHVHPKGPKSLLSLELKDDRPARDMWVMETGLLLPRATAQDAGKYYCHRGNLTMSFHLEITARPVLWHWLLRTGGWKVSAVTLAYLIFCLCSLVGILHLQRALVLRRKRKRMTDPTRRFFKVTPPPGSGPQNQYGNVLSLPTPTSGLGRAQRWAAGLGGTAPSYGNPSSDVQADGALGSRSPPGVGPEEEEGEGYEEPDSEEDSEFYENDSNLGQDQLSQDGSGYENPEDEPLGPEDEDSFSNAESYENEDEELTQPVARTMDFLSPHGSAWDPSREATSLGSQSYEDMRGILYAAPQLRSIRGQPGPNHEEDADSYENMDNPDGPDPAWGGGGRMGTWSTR
Nature of the test: affinity by flow cytometry on Ramos cells (bound/free versus bound). The method, then:
Binding affinity to CD3 and CD19 was determined by flow cytometry using Jurkat and Ramos cells, respectively. The cells were transferred in to 96-well U-bottom plates (BD) at a density of 5×10⁴ cells/well. Antibodies to be tested were 1:2-fold serially diluted in 1% 1×PBS/1% BSA and incubated with cells at 4° C. for 1 hr. Then, the plates were centrifuged at 1500 rpm for 4 mins and the supernatant discarded. […] The cells were washed once and re-suspended in 100 μL 1×PBS/1% BSA. Fluorescence intensity was measured by flow cytometry (BD Canto II) and analyzed by FlowJo. Fluorescence intensity was converted to bound molecules/cell based on the quantitative beads (Quantum™ MESF Kits, Bangs Laboratories). KD was calculated by Graphpad Prism5.
The bound IgG/free IgG versus bound IgG was plotted in FIGS. 46A and 46B.

Test [3] has as its target T2, cynomolgus CD19 on CHO-K1 cells (WBP701.CHO-K1.cpro1.FL.C9) (cynomolgus monkey, UniProt A0A2K5W8L9 20-557).
T2 construct: whole, on cells; also called cynomolgus-CD19 expressing cell; WBP701.CHOK1.cPro1.C9
T2 sequence: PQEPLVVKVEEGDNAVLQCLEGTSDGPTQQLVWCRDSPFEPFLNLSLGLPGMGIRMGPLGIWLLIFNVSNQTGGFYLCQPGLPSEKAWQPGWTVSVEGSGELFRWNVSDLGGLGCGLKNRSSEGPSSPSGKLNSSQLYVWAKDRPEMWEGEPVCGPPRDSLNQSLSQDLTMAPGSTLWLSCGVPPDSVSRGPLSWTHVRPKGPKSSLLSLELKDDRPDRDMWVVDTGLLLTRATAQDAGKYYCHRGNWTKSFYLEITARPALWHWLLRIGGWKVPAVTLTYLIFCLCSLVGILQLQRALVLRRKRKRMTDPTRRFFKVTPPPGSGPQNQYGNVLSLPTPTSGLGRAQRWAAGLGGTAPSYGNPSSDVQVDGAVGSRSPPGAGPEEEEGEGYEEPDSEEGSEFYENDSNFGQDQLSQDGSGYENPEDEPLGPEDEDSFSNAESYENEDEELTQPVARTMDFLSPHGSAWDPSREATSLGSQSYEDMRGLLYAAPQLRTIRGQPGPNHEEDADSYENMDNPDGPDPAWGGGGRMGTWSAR
The test can be described thus: flow cytometry on cynomolgus CD19 CHO-K1 cells.
Procedure: Binding of the CD3×CD19 bispecific antibody to Cynomolgus CD19 target protein expressed on CHOK1 cells was determined by flow cytometry analysis. In brief, cynomolgus CD19 over-expressed stable cell line (WBP701.CHOK1.cPro1.C9, WuXi Biologics) were harvested with trypsin and diluted to 1×10⁶ cells/ml in 1% BSA/1×PBS. […] Antibodies serially diluted in 1% BSA/1×PBS were added at 100 ul/well to the pelleted cells and incubated at 4° C. for 1 hour. […] Cells were washed two times with 180 ul/well of 1% BSA/1×PBS by centrifugation at 1500 rpm for 5 minutes at 4° C. […] Cells were then washed two times as described above. After the final wash, cells were resuspended in 80 ul 1% BSA/1×PBS and fluorescence values were measured with a FACS Canto II cytometer (BD Biosciences). The amount of cell surface bound anti-CD19&CD3 bispecific antibody was assessed by measuring the mean fluorescence (MFI). The FACS raw data were analyzed by FlowJo software, wells containing no antibody or secondary antibody only were used to establish background fluorescence. Binding EC50 values were obtained by the four-parameter non-linear regression analysis using GraphPad Prism 5 software.

Test [4] addresses T3, FcγRIIa (H167) (UniProt P12318 36-218, limits assumed).
T3 sequence (looked up): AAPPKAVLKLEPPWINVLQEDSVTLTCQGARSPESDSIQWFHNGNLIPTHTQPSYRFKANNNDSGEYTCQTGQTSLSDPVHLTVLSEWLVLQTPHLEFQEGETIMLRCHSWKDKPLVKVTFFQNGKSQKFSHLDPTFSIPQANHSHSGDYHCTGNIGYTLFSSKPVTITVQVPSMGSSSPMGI
The test can be described thus: SPR (Biacore), receptor captured on anti-his chip, steady state model. The method, then: (§1) Antibody binding affinity to FcγRs was detected using Biacore T200 (or Biacore 8K). Each receptor was captured on an anti-his antibody immobilized CM5 sensor chip (GE). Antibodies at different concentrations were injected over the sensor chip at a flow rate of 30 uL/min for an association phase of 60 s, followed by 60 s dissociation. The chip was then regenerated by 10 mM glycine (pH 1.5) after each binding cycle.
(§2) The sensorgrams of blank surface and buffer channel were subtracted from the test sensorgrams. The experimental data was fitted by 1:1 model using Langmiur analysis (for FcγRI) or steady state model (for other receptors). A molecular weight of 150 KDa was used to calculate the molar concentration of antibodies.

Test [5] deals with FcγRIIIa (V176) (UniProt P08637 17-208). The test is described as above. The method, then: as §1, §2
Sequence of FcγRIIIa (V176) (P08637 17-208 F176V limits assumed): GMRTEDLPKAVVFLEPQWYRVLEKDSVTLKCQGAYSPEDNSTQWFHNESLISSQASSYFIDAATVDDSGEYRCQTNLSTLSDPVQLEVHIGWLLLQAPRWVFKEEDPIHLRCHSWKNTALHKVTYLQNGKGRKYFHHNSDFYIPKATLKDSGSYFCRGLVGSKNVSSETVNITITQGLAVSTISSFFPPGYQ
Test [6] deals with T4, FcγRIIa (R167) (UniProt P12318 36-218, limits assumed).
T4 sequence (looked up): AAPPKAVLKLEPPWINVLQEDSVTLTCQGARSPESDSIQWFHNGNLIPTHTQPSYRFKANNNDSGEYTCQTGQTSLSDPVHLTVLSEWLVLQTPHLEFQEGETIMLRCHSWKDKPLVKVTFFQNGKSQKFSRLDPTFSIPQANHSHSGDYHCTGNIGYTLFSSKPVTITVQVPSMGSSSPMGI
Described as above. The method, then: as §1, §2

The target of test [7] is FcγRIIIa (F176) (UniProt P08637 17-208). The description is as above. The method, then:
as §1, §2

Sequence of FcγRIIIa (F176) (P08637 17-208 limits assumed): as the sequence (P08637 17-208 F176V limits assumed) above, with V160F counted along it

B1: W3248-U6T5.G25-1.uIgG4.SP, bispecific anti-PD-1 x CTLA-4 (bispecific antibody)
heavy: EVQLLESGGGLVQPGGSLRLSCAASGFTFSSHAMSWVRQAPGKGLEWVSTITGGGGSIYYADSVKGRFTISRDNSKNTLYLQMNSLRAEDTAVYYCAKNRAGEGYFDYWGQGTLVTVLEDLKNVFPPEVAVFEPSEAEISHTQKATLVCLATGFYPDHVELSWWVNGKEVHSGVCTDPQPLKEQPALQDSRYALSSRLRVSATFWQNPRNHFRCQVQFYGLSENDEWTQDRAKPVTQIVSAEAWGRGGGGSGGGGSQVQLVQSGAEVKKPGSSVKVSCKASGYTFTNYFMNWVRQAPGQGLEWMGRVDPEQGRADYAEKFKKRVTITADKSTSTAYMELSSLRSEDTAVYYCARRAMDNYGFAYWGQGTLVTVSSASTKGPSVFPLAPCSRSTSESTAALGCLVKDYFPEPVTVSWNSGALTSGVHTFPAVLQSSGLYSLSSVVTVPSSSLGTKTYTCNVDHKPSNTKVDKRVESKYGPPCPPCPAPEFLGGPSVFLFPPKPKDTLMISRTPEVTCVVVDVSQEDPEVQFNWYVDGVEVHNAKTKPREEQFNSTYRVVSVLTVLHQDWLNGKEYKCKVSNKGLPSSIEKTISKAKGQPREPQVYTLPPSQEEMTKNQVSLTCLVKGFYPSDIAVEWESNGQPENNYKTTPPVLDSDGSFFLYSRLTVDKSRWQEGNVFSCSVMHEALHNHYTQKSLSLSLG
light 1: SYELTQPLSVSVALGQTARITCGGDNIGNKDVHWYQQKPGQAPVLVIYRDSNRPSGIPEGFSGSNSGNTATLTISRAQAGDEADYYCQVWDSIWVFGGGTKLTVLPDIQNPDPAVYQLRDSKSSDKSVCLFTDFDSQTQVSQSKDSDVYITDKCVLDMRSMDFKSNSAVAWSQKSDFACANAFQNSIIPEDTFFPSPESS
light 2: EIVLTQSPDFQSVTPKEKVTITCSANSALSYMYWYQQKPDQSPKLWVHGTSNLASGVPSRFSGSGSGTDFTLTINSLEAEDAATYYCHHWSNTQWTFGGGTKVEIKRTVAAPSVFIFPPSDEQLKSGTASVVCLLNNFYPREAKVQWKVDNALQSGNSQESVTEQDSKDSTYSLSSTLTLSKADYEKHKVYACEVTHQGLSSPVTKSFNRGEC
notes: IgG4 (S228P); also called WBP3248-U6T5.G25-1-uIgG4.SP; U6T5.G25.IgG4
In turn, B1 displayed an IC50 in test [1] of 0.00214 µM.

B2: W3438-T3U4.E17-1.uIgG4.SP, bispecific anti-CD3 x CD19 (bispecific antibody)
heavy 1: QVQLVQSGAEVKKPGSSVKVSCKASGFAFTDYYIHWVRQAPGQGLEWMGWISPGNVNTKYNENFKGRVTITADKSTSTAYMELSSLRSEDTAVYYCARDGYSLYYFDYWGQGTLVTVLEDLKNVFPPEVAVFEPSEAEISHTQKATLVCLATGFYPDHVELSWWVNGKEVHSGVCTDPQPLKEQPALQDSRYALSSRLRVSATFWQNPRNHFRCQVQFYGLSENDEWTQDRAKPVTQIVSAEAWGRYGPPCPPCPAPEFLGGPSVFLFPPKPKDTLMISRTPEVTCVVVDVSQEDPEVQFNWYVDGVEVHNAKTKPREEQFNSTYRVVSVLTVLHQDWLNGKEYKCKVSNKGLPSSIEKTISKAKGQPREPQVYTLPPCQEEMTKNQVSLWCLVKGFYPSDIAVEWESNGQPENNYKTTPPVLDSDGSFFLYSRLTVDKSRWQEGNVFSCSVMHEALHNHYTQKSLSLSLGK
light 1: DIVMTQSPDSLAVSLGERATINCKSSQSLLNSRTRKNYLAWYQQKPGQPPKLLIYWASTRQSGVPDRFSGSGSGTDFTLTISSLQAEDVAVYYCTQSHTLRTFGGGTKVEIKPDIQNPDPAVYQLRDSKSSDKSVCLFTDFDSQTQVSQSKDSDVYITDKCVLDMRSMDFKSNSAVAWSQKSDFACANAFQNSIIPEDTFFPSPESS
heavy 2: QMQLVQSGPEVKKPGTSVKVSCKASGYAFTSYNMYWVRQARGQRLEWIGYIDPYNGDTTYNQKFKGRVTITRDMSTSTAYMELSSLRSEDTAVYYCLTTAYAMDYWGQGTLVTVSSASTKGPSVFPLAPCSRSTSESTAALGCLVKDYFPEPVTVSWNSGALTSGVHTFPAVLQSSGLYSLSSVVTVPSSSLGTKTYTCNVDHKPSNTKVDKRVESKYGPPCPPCPAPEFLGGPSVFLFPPKPKDTLMISRTPEVTCVVVDVSQEDPEVQFNWYVDGVEVHNAKTKPREEQFNSTYRVVSVLTVLHQDWLNGKEYKCKVSNKGLPSSIEKTISKAKGQPREPQVCTLPPSQEEMTKNQVSLSCAVKGFYPSDIAVEWESNGQPENNYKTTPPVLDSDGSFFLVSRLTVDKSRWQEGNVFSCSVMHEALHNHYTQKSLSLSLGK
light 2: DIQLTQSPSFLSASVGDRVTITCSASSTVNYMHWYQQKPGKAPKLLIYSTSNLASGVPSRFSGSGSGTEFTLTISSLQPEDFATYYCHQWSSYPYTFGQGTKLEIKRTVAAPSVFIFPPSDEQLKSGTASVVCLLNNFYPREAKVQWKVDNALQSGNSQESVTEQDSKDSTYSLSSTLTLSKADYEKHKVYACEVTHQGLSSPVTKSFNRGEC
notes: also called E17-Design_2-QQQQ (IgG4); E17-IgG4; copies: 1 + 1 + 1 + 1
On to B2, for which the Kd turned out to be 0.023 µM in test [2]; 20.5 µM in test [4]; 14 µM in test [5]; 15.8 µM in test [6]; 29.3 µM in test [7]. The response in test [3] was half-maximal at 0.026 µM (EC50).
